Our source for the Kd values is PMC7529705 (Biochemistry, 2020).

The target in this assay is WD-40 repeat-containing protein 5 (WDR5), full-length (human, UniProt P61964 1-334). In words: ITC. On the technique in general: Isothermal titration calorimetry measures the heat released or taken up as one component is titrated into another.

In the case of ARTKQTARKSTG [Histone H3 1–12aa unmodified peptide], binding was characterised by a dissociation constant (Kd) of 10.6 ± 0.8 µM.
